T1: recombinant transforming ras p21 (human)
T1 chain: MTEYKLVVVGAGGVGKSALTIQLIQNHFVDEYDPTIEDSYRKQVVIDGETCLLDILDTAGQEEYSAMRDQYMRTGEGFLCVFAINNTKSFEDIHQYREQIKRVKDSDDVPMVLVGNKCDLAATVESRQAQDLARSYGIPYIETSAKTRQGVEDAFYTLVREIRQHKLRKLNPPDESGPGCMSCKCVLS


Molecular target: T1, recombinant transforming ras p21
Assay: cell-based or functional assay
Settings: not given

Q: With KRV [Lys-Arg-Val] as the molecule, how does the “Present Inhibition of ras-Induced Maturation” value (“Present Inhibition” for short) read?
A: The value was 22 percent.

Q: With VVI [Val-Val-Ile] as the molecule, how does the “Present Inhibition” value read?
A: Its value is 34 percent.

Q: With IKRVKD [peptide of SEQ ID NO:1 (residues 100 to 105 of SEQ ID NO:5)] as the molecule, how does the “Present Inhibition” value read?
A: The value was 76 percent.

Q: With KCDLA [peptide of SEQ ID NO:2 (residues 117 to 121 of SEQ ID NO:5)] as the molecule, how does the “Present Inhibition” value read?
A: The value was 38 percent.

Q: With DLAA [peptide of SEQ ID NO:4 (residues 119 to 122 of SEQ ID NO:5)] as the molecule, how does the “Present Inhibition” value read?
A: The value was 22 percent.

Q: For GNKCDLAARTVE [peptide of SEQ ID NO:8 (residues 115 to 126 of SEQ ID NO:5)], which “Present Inhibition” value is on record?
A: Its value is 92 percent.

Q: For TIEDSYRKQVVID [peptide of SEQ ID NO:6 (residues 35 through 47 of SEQ ID NO:5)], which “Present Inhibition” value is on record?
A: Its value is 28 percent.

Q: For CDLAART [peptide of SEQ ID NO:9 (residues 118 to 124 of SEQ ID NO:5)], which “Present Inhibition” value is on record?
A: The value was 65 percent.

Q: With YREQIKRVKDSDDVP [peptide of SEQ ID NO:7 (residues 96 to 110 of SEQ ID NO:5)] as the molecule, how does the “Present Inhibition” value read?
A: The value was 56 percent.

test system: oncogenic ras-p-21; assay: not given; settings: background; cited from earlier work

Q: For `N[C@@H](Cc1ccc(O)cn1)C(=O)O` [Azatyrosine], which “inhibition of oncogenic ras-p-21” value is on record?
A: The value was “strongly inhibits”.
